The values below come from patent US8114968 (DYAX, dated 2012).

Residue numbers refer to the chain shown, from its start. Where only a bound is given, the exact number is not on record here.

B1: 539B-M0007-H06 (Fab, V domains shown)
VH: EVQLLESGGGLVQPGGSLRLSCAASGFTFSHYWMHWVRQAPGKGLEWVSSISSSGGMTYYADSVKGRFTISRDNSKNTLYLQMNSLRAEDTAVYYCTTADYGYYYGMDVWGQGTTVTVSS
VL: DIQMTQSPGTLSLSSGERATLSCRASQSVSSNYLAWYQQKRGQAPRLLIYGASSRATGVPGRFSGSGSGTDFTLTISRLEPEDFAVYYCQQYGSSPRTFGQGTKLEIK
B2: 539B-M0015-F02 (Fab, V domains shown)
VH: EVQLLESGGGLVQPGGSLRLSCAASGFTFSRYGMTWVRQAPGKGLEWVSGISPSGGNTWYADSVKGRFTISRDNSKNTLYLQMNSLRAEDTAVYYCTSHDYGDHYGMDVWGQGTLVTVSS
VL: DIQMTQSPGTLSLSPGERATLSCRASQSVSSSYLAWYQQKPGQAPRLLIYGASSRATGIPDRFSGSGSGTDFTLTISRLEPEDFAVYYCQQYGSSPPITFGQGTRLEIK
B3: 539B-M0011-H11 Fab (Fab, V domains shown)
VH: EVQLLESGGGLVQPGGSLRLSCAASGFTFSWYNMWWVRQAPGKGLEWVSYIYPSGGNTGYADSVKGRFTISRDNSKNTLYLQMNSLRAEDTAVYYCAVFEYSSSGPQGYWGQGTLVTVSS
VL: QSALTQPPSVSVAPGQTARITCGGNNIGTKSVHWYQQKSGQAPVLVVYDNSDRPSGIPERFSGSNSGNTATLTISRVEAGDEADYYCQVWDNSIDHVVFGGGTKLTVL
B4: 539B-M0008-H09 Fab (Fab, V domains shown)
VH: EVQLLESGGGLVQPGGSLRLSCAASGFTFSDYNMHWVRQAPGKGLEWVSYIGPSGGYTHYADSVKGRFTISRDNSKNTLYLQMNSLRAEDTAVYYCAKDIRGAYSSGLFDYWGRGTLVTVSS
VL: DIQMTQSPSSLSASVGDRVTITCRANQSIYTYLNWYQQKPGKAPELLIYAASSLQSGVPSRFSGSGSGTDFTLTISSLQPEDFATYYCQQAGIFGQGTKLEIK
notes: N-glycosylation site in LC CDR1; also called M08H09
B5: 539B-M0071-A01 (Fab, V domains shown)
VH: B4 VH with D31E, N33W, H35T, Y50G, G52S, Y57M, H59F
VL: B4 VL
B6: 539B-M0063-C07 (Fab, V domains shown)
VH: B4 VH with D31P, N33W, H35S, Y50G, G52S, Y57I, H59F
VL: B4 VL
B7: 539B-M0063-B01 (Fab, V domains shown)
VH: B4 VH with D31W, N33W, H35G, Y50S, G52S, H59F
VL: B4 VL
B8: 539B-M0063-B11 (Fab, V domains shown)
VH: B4 VH with D31P, N33W, Y50G, Y57L, H59F
VL: B4 VL
B9: 539B-M0067-F06 (Fab, V domains shown)
VH: B4 VH with D31W, H35S, Y50R, G52S, Y57D, H59G
VL: B4 VL
B10: 539B-M0063-G01 (Fab, V domains shown)
VH: B4 VH with D31W, N33W, H35V, Y50S, Y57D, H59Y
VL: B4 VL
B11: 539B-M131A06 (antibody, V domains shown)
VH: B4 VH with D31W, N33W, Y50G, G52S, Y57M, H59M, K98R, R101V, A103P, S106A
VL: B4 VL
notes: N-glycosylation site in LC CDR1; also called M0131-A06
B12: 539B-M0008-H09 (format not stated) (antibody, V domains shown)
VH: B4 VH
VL: B4 VL
notes: Same clone as m49 and m54; also called M08H09
B13: 539A-M0013-D11 IgG (antibody, V domains shown)
VH: EVQLLESGGGLVQPGGSLRLSCAASGFTFSSYPMWWVRQAPGKGLEWVSGIVPSGGVTIYADSVKGRFTISRDNSKNTLYLQMNSLRAEDTAVYYCARVGWLASSDYYYYMDVWGKGTTVTVSS
VL: DIQMTQSPSSLSASVGDRITISCQASQDIDNYLNWYQQRSGKAPKLLIYDAYNLKAGVPSRFRGSRSGTDFFLTISSLQPEDFATYYCQQSYRAPLTFGGGTKVEIK
B14: 539A-M0013-H06 IgG (antibody, V domains shown)
VH: EVQLLESGGGLVQPGGSLRLSCAASGFTFSAYEMDWVRQAPGKGLEWVSGISSSGGPTYYADSVKGRFTISRDNSKNTLYLQMNSLRAEDTAVYYCARVGGWELLQDYYYYMDVWGKGTTVTVSS
VL: DIQMTQSPATLSLSPGERATLSCRASHSVDNLAWYQQQPGQAPRLLIYDVSYRATGIPARFSGSGSGTDFTLTISSLEPEDFAVYYCQQRNNWPLSLTFGGGTKVEIK
B15: 539A-M0013-G12 IgG (antibody, V domains shown)
VH: EVQLLESGGGLVQPGGSLRLSCAASGFTFSWYHMFWVRQAPGKGLEWVSGISSSGGYTHYADSVKGRFTISRDNSKNTLYLQMNSLRAEDTAVYYCATREGMLYDYVWGENYMDVWGKGTTVTVSS
VL: DIQMTQSPSSLSASVGDRVTITCQASQDTYNRLHWYQQKPGKAPKLLIYDAVNLNRGVPSRFRGSGSGTNYILIITNLQPEDTATYYCQHSDDLSLAFGGGTKVEIK
notes: also called M0013-G12 IgG a-huMMP12
B16: 539A-M0016-A11 IgG (antibody, V domains shown)
VH: EVQLLESGGGLVQPGGSLRLSCAASGFTFSEYQMAWVRQAPGKGLEWVSSIYPSGGHTHYADSVKGRFTISRDNSKNTLYLQMNSLRAEDTAVYYCAKESYYDFWSGYYFDYWGQGTLVTVSS
VL: DIQMTQSPSSLSASVRDRVTITCRTSQNINTYLNWYYQAPGRAPKLLIFGVSSLHRGVSSRFSGSGDGTEFTLTISSLQPEDIGTYFCQQSYSSPWTFGQGTKVEIK
notes: also called M0016-A11 IgG a-huMMP12

T1 sequence (P39900 106-470 limits assumed): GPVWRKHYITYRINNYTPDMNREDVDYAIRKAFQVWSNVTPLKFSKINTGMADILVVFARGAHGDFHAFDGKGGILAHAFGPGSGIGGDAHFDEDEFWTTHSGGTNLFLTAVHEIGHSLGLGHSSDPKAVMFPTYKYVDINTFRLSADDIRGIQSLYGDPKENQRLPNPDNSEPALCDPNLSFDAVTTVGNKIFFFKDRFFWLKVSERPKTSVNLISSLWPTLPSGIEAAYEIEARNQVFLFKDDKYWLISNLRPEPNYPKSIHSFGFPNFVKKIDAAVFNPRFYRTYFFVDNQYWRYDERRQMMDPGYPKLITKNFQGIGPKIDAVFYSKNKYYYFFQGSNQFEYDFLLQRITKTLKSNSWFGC

One test has as its target T1, human MMP-12 (human, UniProt P39900 106-470, limits assumed). Nature of the test: cell-based or functional assay.
B1: the “% of activity left with 100 nM in assay 04 Oct. 2006” value (“% of activity left with 100 nM” below) amounted to 55.5%.
B2: the “% of activity left with 100 nM” value amounted to 84.1%.
Still for that read-out and setting: the same measure for B3: 12.2%.
With B4, the “% of activity left with 100 nM” value was 4.6%.

The target in another test is T2, murine MMP-12 (mouse, UniProt P34960 110-473, limits assumed).
T2 construct: also called mouse MMP12; mMMP12
T2 sequence (P34960 110-473 limits assumed): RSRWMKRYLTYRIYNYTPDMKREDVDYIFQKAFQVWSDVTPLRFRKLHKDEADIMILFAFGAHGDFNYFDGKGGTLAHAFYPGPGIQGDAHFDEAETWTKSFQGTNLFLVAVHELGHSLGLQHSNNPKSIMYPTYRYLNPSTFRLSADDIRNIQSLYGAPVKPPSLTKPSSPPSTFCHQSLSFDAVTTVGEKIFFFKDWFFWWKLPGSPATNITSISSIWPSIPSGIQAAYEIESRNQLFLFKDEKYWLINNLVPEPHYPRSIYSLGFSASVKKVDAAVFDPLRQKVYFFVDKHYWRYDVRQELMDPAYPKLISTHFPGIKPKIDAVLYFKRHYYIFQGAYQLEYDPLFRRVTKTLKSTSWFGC
Put plainly: BIACORE, coated Fab. A general note: In SPR one partner is held on a chip, and binding of the other changes the refractive index at the surface.
Usually koff stands for the rate constant with which the complex falls apart. A higher koff goes with a short-lived complex. In turn, B4 showed a koff of 0.004 s⁻¹.
Still for that read-out and setting: the same measure for B5: 0.01 s⁻¹; for B6: 0.002 s⁻¹; for B7: 0.0025 s⁻¹.
Molecule B8 showed a koff of 0.00311 s⁻¹.
B9 showed a koff of 0.00025 s⁻¹.
The molecule B10 came in with a koff of 0.00654 s⁻¹. This koff lies about 26-fold higher than the previous one.

The target in another test is T1, human MMP-12. Put plainly: BIACORE, coated Fab.
As usually defined, the Kd is the free concentration of one partner at which half of the binding sites on the other are occupied at equilibrium, for simple one-to-one binding. B4: the affinity, expressed as Kd, was 17.7 nM.
The same measure, in the same setting: then B5, with 1.1 nM; and B6, with 2.29 nM.
For the molecule B7, the dissociation constant (Kd) came to 0.171 nM. This Kd is about 13-fold lower than that of the molecule before.
B8 registered a Kd of 0.12 nM.
The molecule B9 gave a Kd of 0.203 nM.
B10 came in with a dissociation constant (Kd) of 1.58 nM.

For a further test, the target named is T1, human MMP-12. Nature of the test: inhibition assay of MMP-12 activity ('IC50 or Ki').
The Ki is a measure of affinity in units of concentration, obtained from inhibition or displacement. Low values mean higher affinity, high ones lower affinity. Molecule B11 displayed a Ki of less than 0.3 nM.

The next test deals with T2, murine MMP-12. Nature of the test: IC50 against substrate concentration, enzyme inhibition, FIG. 3.
Turning to B12, the Ki came out at 2.2 nM. That is a single-digit nanomolar value.

In another test the target is T1, human MMP-12. The test is described as above.
Molecule B12 gave a Ki of 2.8 nM.

Another test addresses T2, murine MMP-12. Nature of the test: cell-based or functional assay.
B4: the IC50 m was < 10 nM (not printed; inferred).
With B5, the IC50 m is > 10 nM (not printed; inferred).
With B6, the IC50 m was < 10 nM (not printed; inferred).
In the case of B7, the IC50 m was > 10 nM (not printed; inferred).
Regarding B8, the IC50 m is > 10 nM (not printed; inferred).
On the same count and under the same terms, the same measure for B9: < 10 nM (not printed; inferred); for B10: > 10 nM (not printed; inferred).

The target of another test is T1, human MMP-12. Put plainly: cell-based or functional assay. This is another data set of the same source.
In the case of B4, the “IC50hu” value was determined as 12.1 nM.
Same read-out and setting: the same measure for B5: 0.3 nM; for B6: 1 nM; for B7: 0.7 nM.
On the same count and under the same terms, the same measure for B8: 0.7 nM.
On the same count and under the same terms, then B9, with 0.7 nM; and B10, with 0.8 nM.

Another test concerns the target T1, human MMP-12. Put plainly: Ki from inhibition of MMP-12 enzyme activity.
Molecule B13 returned an inhibition constant Ki of 4.97 nM.
On the same count and under the same terms, then B14, with 2.7 nM.
The same measure, in the same setting: the same measure for B15: 2.05 nM.
Same read-out and setting: the same measure for B16: 0.7 nM.

A further test addresses T1, human MMP-12. Put plainly: cell-based or functional assay. This is another data set of the same source.
Regarding B13, the “IC50 (nM), IgGs” value came to 13.3 nM.
With B14, the “IC50 (nM), IgGs” value came to 5.3 nM.
As for B15, the “IC50 (nM), IgGs” value amounted to 4.1 nM.
As for B16, the “IC50 (nM), IgGs” value amounted to 2.1 nM.
